Assay results: patent publication US20240115500A1, “POLYMERIC MICELLE COMPLEXES OF MRNA OR ZWITTERIONIC AGENTS, AND FORMULATIONS AND USES THEREOF” (Aravasc Inc., priority 2020, published 2024)

Assay: Agarose gel electrophoresis of protein + PBC formulations at defined w/w ratios (Example 2)
[1] = polymer:protein ratio 15:1, FIG. 2A-2D

Method: Unless otherwise indicated, the complexation was conducted at room temperature by incubating the PBC with the protein for 10-20 minutes on a microcentrifuge. A formulation of PBC alone was prepared along with the protein and PBC complexes.
Formulation were prepared as described above and analyzed by agarose gel electrophoresis. A 2% agarose gel was prepared and 20 μl of each formulation was loaded at the center of the gel. The gel was run for 30 minutes at 75V.

Molecule | complexation with the polymer (agarose gel) [1] | complexation with the polymer (agarose gel) (polymer:protein ratio 30:1, FIG. 2A/2B) | complexation with the polymer (agarose gel) (polymer:protein ratio 18:1, FIG. 2D)
Semaglutide | significantly complex | significantly complex | 
interferon alpha |  |  | significantly complex
interferon gamma: interferon protein tested for complexation with PBC (protein, UniProt P01579 24-161, looked up) Interferon gamma: QDPYVKEAENLKKYFNAGHSDVADNGTLFLGILKNWKEESDRKIMQSQIVSFYFKLFKNFKDDQSIQKSVETIKEDMNVKFFNSNKKKRDDFEKLTNYSVTDLNVQRKAIHELIQVMAELSPAAKTGKRKRSQMLFRG | significantly complex |  | 
